Reference: PMC2788227 (PLoS ONE, 2009)

Target: the molecule itself
Experiment: SEC

B1: Francisella tularensis subsp. holarctica LVS 1-deoxy-D-xylulose 5-phosphate reductoisomerase (MEP sy (enzyme)
chain: MFKKTKITILGATGSIGDSTLAVIRETNDFEVFALTAFSNVEKLAELCQEFKPKFAVVPDLSKKQKLQSLVTDVEVLVGESGLEKVSSLAEIDIVMSAIVGIAGLKPTFAAAKAGKKILLANKESLVTAGHLLIDEVVKNNAQLIPVDSEHNAIFQCIDNHDKKCLPEIDKIILTASGGPFRDKQLHELTDVTPEQACNHPNWQMGRKISVDSSTMVNKALEVIEAYWLFSVSADKIGVLIHPQSVTHSIVRYVDGSYIAQLGVPDMKTPIANAMYYPKRGSVNVESLDFTKYQLTFREACFERFEALKIVFNNLQNKNYAANIVFNAANEELVAAFLNKKIKYLEIIEVNKKVTKELNFENPKNIEEVFEIDRKTREYVDSVLG
- stoichiometry N: 2
